Data: patent publication US20220378931A1 (Eli Lilly, published 2022)

Experiments:
[1] = biological target: T1, human insulin receptor isoform A with C-terminal C9 tag (human, UniProt P06213 28-1382); test: 125I-insulin competition SPA, hIR-A membranes, 0.1% BSA
T1 construct: membranes of stably transfected HEK293 cells; also called hIR-A; human IR-A
Experimental: (§1) The assays are performed with a SPA method using polyvinyltoluene (PVT) wheat germ agglutinin-coupled SPA beads (Perkin Elmer). Assay buffer contains 50 mM Tris-HCl, pH 7.5, 150 mM NaCl and either A) 0.1% w/v fatty-acid free BSA; B) 0.1% w/v fatty-acid free human serum albumin (HSA); C) 0.1% w/v rat serum albumin (RSA); or D) 0.001% Nonidet P-40 Substitute (NP-40, Roche Diagnostics). Ten-point concentration response curves using three-fold serial dilutions of test samples or controls are prepared in Assay Buffer using a Freedom/Evo robot (Tecan).
(§2) Percent specific inhibition (y-axis) is plotted versus the log concentration of compound (x-axis). […] Reported Ki values are shown as the geometric mean with the standard error (Delta Method Standard Error) and the number of independent replicate determinations used to calculate the geometric mean indicated by n.

[2] = biological target: T1, human insulin receptor isoform A with …; test: 125I-insulin competition SPA, hIR-A membranes, 0.1% HSA
Experimental: as §1, §2

[3] = biological target: T2, human insulin receptor isoform B with C-terminal C9 tag (human, UniProt P06213 28-1382); test: 125I-insulin competition SPA, hIR-B membranes, 0.1% BSA
T2 construct: membranes of stably transfected HEK293 cells; also called hIR-B; human IR-B
Experimental: as §1, §2

[4] = biological target: T2, human insulin receptor isoform B with …; test: 125I-insulin competition SPA, hIR-B membranes, 0.1% HSA
Experimental: as §1, §2

[5] = biological target: T1, human insulin receptor isoform A with …; test: 125I-insulin competition SPA, hIR-A membranes, 0.001% NP-40
Experimental: as §1, §2

[6] = biological target: T2, human insulin receptor isoform B with …; test: 125I-insulin competition SPA, hIR-B membranes, 0.001% NP-40
Experimental: as §1, §2

Binder	Ki [1]	Ki [2]	Ki [3]	Ki [4]	Ki [5]	Ki [6]
INS Analog 17 (other, single-chain insulin B-L2-A-L1-VHH fusion; also called Ex. 17) FVSQHLCGSHLVEALRLVCGERGFFYTPKTGGGGGGGIVEQCCHSICSLYQLENYCGPGPAPGPAPGPAPGPAPGPAPGPAPGPAPGPAEVQLLESGGGLVQPGGSLRLSCAASGRYIDETAVAWFRQAPGKEREFVAGIGGGVDITYYADSVKGRFTISRDNSKNTLYLQMNSLRPEDTAVYYCAARPGRPLITSKVADLYPYWGQGTLVTVSSPP	81.8 nM	31.3 nM	110 nM	102 nM	31.3 nM	44.3 nM
INS Analog 11 (other, single-chain insulin B-L2-A-L1-VHH fusion; also called Ex. 11) FVSQHLCGSHLVEALHLVCGERGFFYTPKTGGGGGGGIVEQCCHSICSLEQLENYCGPGPAPGPAPGPAPGPAPGPAPGPAPGPAPGPAEVQLLESGGGLVQPGGSLRLSCAASGRYIDETAVAWFRQAPGKEREFVAGIGGGVDITYYADSVKGRFTISRDNSKNTLYLQMNSLRPEDTAVYYCAARPGRPLITSKVADLYPYWGQGTLVTVSSPP	36 nM	31.8 nM	164 nM	95.4 nM	20.5 nM	81.1 nM
INS Analog 9 (other, single-chain insulin B-L2-A-L1-VHH fusion; also called Ex. 9) FVSQHLCGSHLVEALYLVCGERGFHYTPKTGGGGGGGIVEQCCHSICSLYQLENYCGPGPAPGPAPGPAPGPAPGPAPGPAPGPAPGPAEVQLLESGGGLVQPGGSLRLSCAASGRYIDETAVAWFRQAPGKEREFVAGIGGGVDITYYADSVKGRFTISRDNSKNTLYLQMNSLRPEDTAVYYCAARPGRPLITSKVADLYPYWGQGTLVTVSSPP	11.7 nM				6.67 nM	
INS Analog 12 (other, single-chain insulin B-L2-A-L1-VHH fusion; also called Ex. 12) FVSQHLCGSHLVEALHLVCGERGFHYTPKTGGGGGGGIVEQCCHSICSLYQLENYCGPGPAPGPAPGPAPGPAPGPAPGPAPGPAPGPAEVQLLESGGGLVQPGGSLRLSCAASGRYIDETAVAWFRQAPGKEREFVAGIGGGVDITYYADSVKGRFTISRDNSKNTLYLQMNSLRPEDTAVYYCAARPGRPLITSKVADLYPYWGQGTLVTVSSPP	37.9 nM	42.3 nM	113 nM	62.1 nM	25 nM	42.8 nM
INS Analog 7 (other, single-chain insulin B-L2-A-L1-VHH fusion; also called Ex. 7) FVSQHLCGSHLVEALYLVCGERGFFYTPKTGGGGGGGIVEQCCTSICSLYQLENYCGPGPAPGPAPGPAPGPAPGPAPGPAPGPAPGPAEVQLLESGGGLVQPGGSLRLSCAASGRYIDETAVAWFRQAPGKEREFVAGIGGGVDITYYADSVKGRFTISRDNSKNTLYLQMNSLRPEDTAVYYCAARPGRPLITSKVADLYPYWGQGTLVTVSSPP	36.1 nM	36.3 nM	120 nM	47.1 nM	14.3 nM	45.4 nM
INS Analog 8 (other, single-chain insulin B-L2-A-L1-VHH fusion; also called Ex. 8) FVSQHLCGSHLVEALYLVCGERGFHYTPKTGGGGGGGIVEQCCTSICSLYQLENYCGPGPAPGPAPGPAPGPAPGPAPGPAPGPAPGPAEVQLLESGGGLVQPGGSLRLSCAASGRYIDETAVAWFRQAPGKEREFVAGIGGGVDITYYADSVKGRFTISRDNSKNTLYLQMNSLRPEDTAVYYCAARPGRPLITSKVADLYPYWGQGTLVTVSSPP	139 nM				47.3 nM	
INS Analog 10 (other, single-chain insulin B-L2-A-L1-VHH fusion; also called Ex. 10) FVSQHLCGSHLVEALHLVCGERGFFYTPKTGGGGGGGIVEQCCTSICSLYQLENYCGPGPAPGPAPGPAPGPAPGPAPGPAPGPAPGPAEVQLLESGGGLVQPGGSLRLSCAASGRYIDETAVAWFRQAPGKEREFVAGIGGGVDITYYADSVKGRFTISRDNSKNTLYLQMNSLRPEDTAVYYCAARPGRPLITSKVADLYPYWGQGTLVTVSSPP	146 nM				20.1 nM	
INS Analog 2 (other, single-chain insulin B-L2-A-L1-VHH fusion; also called Ex. 2) FVDQHLCGSHLVEALYLVCGERGFFYTPKTGGGGGGGIVEQCCTSICSLYQLENYCGPGPAPGPAPGPAPGPAPGPAPGPAPGPAPGPAEVQLLESGGGLVQPGGSLRLSCAASGRTVSSTAVAWFRQAPGKEREFVAGIGGSVDITYYADSVKGRFTISRDNSKNTLYLQMNSLRPEDTAVYYCAVRPGRPLITSRDANLYDYWGQGTLVTVSS	31.4 nM	31.9 nM	56 nM	29.7 nM	45.1 nM	39.2 nM
INS Analog 5 (other, single-chain insulin B-L2-A-L1-VHH fusion; also called Ex. 5) FVNQHLCGSHLVEALHLVCGERGFFYTPKTGGGGGGGIVEQCCTSICSLYQLENYCGPGPAPGPAPGPAPGPAPGPAPGPAPGPAPGPAEVQLLESGGGLVQPGGSLRLSCAASGRTVSSTAVAWFRQAPGKEREFVAGIGGSVDITYYADSVKGRFTISRDNSKNTLYLQMNSLRPEDTAVYYCAVRPGRPLITSRDANLYDYWGQGTLVTVSS	57 nM					
INS Analog 3 (other, single-chain insulin B-L2-A-L1-VHH fusion; also called Ex. 3) FVNQHLCGAHLVEALYLVCGERGFFYTPKTGGGGGGGIVEQCCTSICSLYQLENYCGPGPAPGPAPGPAPGPAPGPAPGPAPGPAPGPAEVQLLESGGGLVQPGGSLRLSCAASGRTVSSTAVAWFRQAPGKEREFVAGIGGSVDITYYADSVKGRFTISRDNSKNTLYLQMNSLRPEDTAVYYCAVRPGRPLITSRDANLYDYWGQGTLVTVSS	45.2 nM					
INS Analog 6 (other, single-chain insulin B-L2-A-L1-VHH fusion; also called Ex. 6) FVNQHLCGSHLVEALYLVCGERGFHYTPKTGGGGGGGIVEQCCTSICSLYQLENYCGPGPAPGPAPGPAPGPAPGPAPGPAPGPAPGPAEVQLLESGGGLVQPGGSLRLSCAASGRTVSSTAVAWFRQAPGKEREFVAGIGGSVDITYYADSVKGRFTISRDNSKNTLYLQMNSLRPEDTAVYYCAVRPGRPLITSRDANLYDYWGQGTLVTVSS	65.5 nM					
INS Analog 4 (other, single-chain insulin B-L2-A-L1-VHH fusion; also called Ex. 4) FVNQHLCGSHLVEALELVCGERGFFYTPKTGGGGGGGIVEQCCTSICSLYQLENYCGPGPAPGPAPGPAPGPAPGPAPGPAPGPAPGPAEVQLLESGGGLVQPGGSLRLSCAASGRTVSSTAVAWFRQAPGKEREFVAGIGGSVDITYYADSVKGRFTISRDNSKNTLYLQMNSLRPEDTAVYYCAVRPGRPLITSRDANLYDYWGQGTLVTVSS	591 nM					

The next lines start with the values.

Ki [1]	Ki [2]	Ki [3]	Ki [4]	Ki [5]	Ki [6]	Binder
51.3 nM				18.5 nM		INS Analog 20 (other, single-chain insulin B-L2-A-L1-VHH fusion; also called Ex. 20) FVSQHLCGSHLVEALYLVCGERGFFYTPKTGGGGGGGIVEQCCTSICSLYQLENYCGPGPQPGPQPGPQPGPQPGPQPGPQPGPQPGPQEVQLLESGGGLVQPGGSLRLSCAASGRYIDETAVAWFRQAPGKEREFVAGIGGGVDITYYADSVKGRFTISRDNSKNTLYLQMNSLRPEDTAVYYCAARPGRPLITSKVADLYPYWGQGTLVTVSSPP
46 nM				43.1 nM		INS Analog 16 (other, single-chain insulin B-L2-A-L1-VHH fusion; also called Ex. 16) FVSQHLCGSHLVEALWLVCGERGFFYTPKTGGGGGGGIVEQCCTSICSLYQLENYCGPGPAPGPAPGPAPGPAPGPAPGPAPGPAPGPAEVQLLESGGGLVQPGGSLRLSCAASGRYIDETAVAWFRQAPGKEREFVAGIGGGVDITYYADSVKGRFTISRDNSKNTLYLQMNSLRPEDTAVYYCAARPGRPLITSKVADLYPYWGQGTLVTVSSPP
59.7 nM				17.1 nM		INS Analog 22 (other, single-chain insulin B-L2-A-L1-VHH fusion; also called Ex. 22) FVSQHLCGSHLVEALHLVCGERGFHYTPKTGGGGGGGIVEQCCHSICSLYQLENYCGPGPQPGPQPGPQPGPQPGPQPGPQPGPQPGPQEVQLLESGGGLVQPGGSLRLSCAASGRYIDETAVAWFRQAPGKEREFVAGIGGGVDITYYADSVKGRFTISRDNSKNTLYLQMNSLRPEDTAVYYCAARPGRPLITSKVADLYPYWGQGTLVTVSSPP
39.2 nM				13.1 nM		INS Analog 15 (other, single-chain insulin B-L2-A-L1-VHH fusion; also called Ex. 15) FVSQHLCGSHLVEALFLVCGERGFFYTPKTGGGGGGGIVEQCCTSICSLYQLENYCGPGPAPGPAPGPAPGPAPGPAPGPAPGPAPGPAEVQLLESGGGLVQPGGSLRLSCAASGRYIDETAVAWFRQAPGKEREFVAGIGGGVDITYYADSVKGRFTISRDNSKNTLYLQMNSLRPEDTAVYYCAARPGRPLITSKVADLYPYWGQGTLVTVSSPP
41.8 nM				18.5 nM		INS Analog 19 (other, single-chain insulin B-L2-A-L1-VHH fusion; also called Ex. 19) FVSQHLCGSHLVEALYLVCGERGFFYTPKTGGGGGGGIVEQCCTSICSLYQLENYCGGGGGQGGGGQGGGGQGGGGQGGGGQEVQLLESGGGLVQPGGSLRLSCAASGRYIDETAVAWFRQAPGKEREFVAGIGGGVDITYYADSVKGRFTISRDNSKNTLYLQMNSLRPEDTAVYYCAARPGRPLITSKVADLYPYWGQGTLVTVSSPP
28 nM				8.3 nM		INS Analog 21 (other, single-chain insulin B-L2-A-L1-VHH fusion; also called Ex. 21) FVSQHLCGSHLVEALHLVCGERGFHYTPKTGGGGGGGIVEQCCHSICSLYQLENYCGGGGGQGGGGQGGGGQGGGGQGGGGQEVQLLESGGGLVQPGGSLRLSCAASGRYIDETAVAWFRQAPGKEREFVAGIGGGVDITYYADSVKGRFTISRDNSKNTLYLQMNSLRPEDTAVYYCAARPGRPLITSKVADLYPYWGQGTLVTVSSPP
